Data set [1] deals with trypsin.
The nature of data set [2]: stability by analytical size exclusion chromatography and Ellman's reagent assay (Example 9). In kind it is physicochemical. As for the experimental part: The stability of SG-11 (SEQ ID NO:9) was evaluated following the incubation at 37° C. for one week and at 4° C. for 3 weeks in Buffer C (100 mM sodium phosphate, pH 7.0, 0.5 M sorbitol). The stability was assessed by monitoring aggregation formation with analytical size exclusion chromatography (SEC) equilibrated with Buffer D (100 mM sodium phosphate, pH 7.0, 10% glycerol). […] The cause of the aggregation was investigated as follows. There are two cysteine residues found in SG-11 at positions 147 and 151 (relative to SEQ ID NO:7). […] As free sulphydryl groups could cause aggregation by forming unpreferable intermolecular disulfide bonds, it was examined whether the presence of reducing agent, such as β-mercaptoethanol, could prevent the aggregation.
(Size exclusion chromatography separates by hydrodynamic size, large species first.)

Data set [3] relates to mice treated with DSS. Kind of data set: DSS model of colitis with SG-11V5 protein and SG-11V5-expressing L. lactis (Example 22). The data set is classed as in vivo. As for the experimental part:
Specifically, the mice in this Example 22 were treated with DSS, a chemical known to induce intestinal epithelial damage and thereby reduce intestinal barrier integrity and function. These DSS mice were then administered an L. lactis strain expressing SG-11V5 as described above, or a positive or negative control treatment.
In this study, 3 independent groups of mice (10 mice per group) were used to test the 3 different L. lactis strains: Group 1: L. lactis harboring parent pNZ8124 vector, Group 2: L. lactis harboring inducible SG-11V5 vector (PnisA:otsBA::PnisA:SPusp45:SG-11V5), and Group 3: L. lactis harboring constitutive SG-11V5 vector (PnisA:otsBA::Pusp45:SPusp45:SG-11V5). Each of the strains in Groups 1-3 had been grown until the cultures reached an OD600 of about 0.5, induced with nisin for 2 hours, concentrated to about 10^11 cells/mL in PBS with glycerol, and stored at −80° C. Cells were analyzed by Western blot to confirm protein expression. An additional 4 groups of mice (n=10 per group) were included as controls: Group 4: untreated; Group 5: treated p.o. with vehicle only; Group 6: intraperitoneal (i.p.) administration of Gly2-GLP2 (50 nmoles/kg); and Group 7: i.p. administration of SG-11V5 protein (160 nmoles/kg (4.0 mg/kg).
I.p. administration of Gly2-GLP2 and SG-11V5 was done twice per day, with i.p. administration to the right abdomen in the morning and to the left abdomen in the evening for 6 consecutive days (Day 0-Day 5) and then to the right abdomen on Day 6 prior to euthanasia and tissue recovery. Gly2-GLP2 (CPC Scientific Peptide Company) was prepared by dissolving in PBS(Corning 21-040-CV) with 5 mM NaOH to a concentration of 5 mg/mL Aliquots were stored at −80C prior to use.
Following a 7-day acclimation period, treatments wore initiated in the morning (AM) of Day 0 with i.p. administration of Gly2-GLP2 or purified SG-11V5 protein as a positive control, oral gavage of strain vehicle only (phosphate buffered saline (PBS; Corning 21-040-CV)), or with oral gavage administration of the appropriate L. lactis expression strain.
Fresh drinking water treated with 2.5% DSS was prepared and provided to all the mice on Days 0, 2, and 4 about 6 hours after AM dosing. […] Also, treatments were continued with the L. lactis strains described above once a day (q.d) in the morning with p.o. administration at 10^10 CFU of the strains comprising i) pNZ8124 vector, ii) inducible SG-11V5 vector, or iii) constitutive SG-11V5 vector.
On Day 6, only AM dosing was performed for intraperitoneal (i.p.) injection of protein and oral gavage (p.o) administration of L. lactis strains expressing SG-11V5 protein. Mice were fasted for 4 hours and then orally gavaged with 600 mg/kg 4KDa dextran labeled with fluorescin isothiocyanate (FITC) [4KDa-FITC]. About 50 minutes after the 4KDa-FITC gavage, mice were anesthetic with ketamine (ket)/xylazine (xyl) drug. Mice were injected with 10 ml/kg i.p of 10 mg/ml ketamine and 1 mg/ml xylazine (100 ul per 10 g body weight). One hour after administering 4KDa-FITC and about 10 minutes after ketamine/xylazine anesthesia, mice were euthanized, and blood and tissues were collected to assess barrier function and DSS model readouts. […]
Upon completion of the DSS models above, LBP levels were measured as an inflammation centric readout of barrier function following the protocol detailed above in Examples 7 and 13. […] LBP levels were measured in serum using a commercially available ELISA Kit (Enzo Life Sciences). […]

The mark [4] stands for this setting: SG-11V5 protein 160 nmoles/kg i.p. b.i.d.

The source of these data is patent publication US20210380994A1, “LACTOCOCCUS LACTIS EXPRESSION SYSTEM FOR DELIVERING PROTEINS EFFICACIOUS FOR THE TREATMENT OF EPITHELIAL BARRIER FUNCTION DISORDERS” (Second Genome, Inc., priority 2018, published 2021).

B1: SG-11: Roseburia hominis protein comprising SEQ ID NO:3; tested as SEQ ID NO:5, SEQ ID NO:7 or FLAG-tagged SEQ ID NO:9 (protein, listed as Rosburia hominis)
chain: LEGEESVVYVGKKGVIASLDVETLDQSYYDETELKSYVDAEVEDYTAEHGKNAVKVESLKVEDGVAKLKMKYKTPEDYTAFNGIELYQGKVVASLAAGYVYDGEFARVEEGKVVGAATKQDIYSEDDLKVAIIRANTDVKVDGEICYVSCQNVKLTGKDSVSIRDGYYLETGSVTASVDVTGQESVGTEQLSGTEQMEMTGEPVNADDTEQTEAAAGDGSFETDVYTFIVYK
Regarding B1, the “cleavage by trypsin (SDS-PAGE)” value in data set [1] is on record as “a predominant band is generated in the presence of trypsin”. Besides, the “aggregation by analytical SEC” value in data set [2] (4-days incubation at 37° C. in the presence of 2.5% (v/v) β-mercaptoethanol) was “greatly suppressed”. In addition, the “aggregation formation by analytical SEC” value was “No noticeable change” in data set [2] (4° C. for 3 weeks in Buffer C (100 mM sodium phosphate, pH 7.0, 0.5 M sorbitol), vs freshly thawed protein) and “clearly showed aggregation peaks” in data set [2] (37° C. for one week in Buffer C). The “free sulfhydryl groups (Ellman's reagent assay)” value in data set [2] (SG-11 (SEQ ID NO:9)) was “presence of free sulfhydryl groups”.

B2: SG-11V5: variant of SEQ ID NO:7 with N53S, N83S, C147V, C151S (protein)
chain: MLEGEESVVYVGKKGVIASLDVETLDQSYYDETELKSYVDAEVEDYTAEHGKSAVKVESLKVEDGVAKLKMKYKTPEDYTAFSGIELYQGKVVASLAAGYVYDGEFARVEEGKVVGAATKQDIYSEDDLKVAIIRANTDVKVDGEIVYVSSQNVKLTGKDSVSIRDGYYLETGSVTASVDVTGQESVGTEQLSGTEQMEMTGEPVNADDTEQTEAAAGDGSFETDVYTFIVYK
modifications: Artificial variant of SG-11 (N53S, N83S, C147V, C151S)
Turning to B2, the body weight entry in data set [3] (SG-11V5 160 nmoles/kg i.p. b.i.d., day 6) was “significant improvement in body weight”. In addition, in data set [3] (setting [4]), the colon length entry is “significant increase in the colon length” and the colon weight-to-length ratio result is given as “significant decrease in the colon weight-to-length ratio”. For the same molecule, in data set [3] (SG-11V5 protein 160 nmoles/kg i.p. b.i.d., p<0.0001), the “gross pathology (clinical score 0-5)” value is “significant improvement in gross pathology”. In addition, in data set [3] (SG-11V5 protein 160 nmoles/kg i.p. b.i.d., vs DSS + vehicle), the “4KDa-FITC dextran translocation across the epithelial barrier” value is “non-significant increase”.
